For 1 substance, percent of the substrate cross-linked to NCT (disulfide bond) results are on record in article PMC6576158.

The target in the test is mouse Nicastrin I241C mutant (mouse) (UniProt P57716). Put plainly: cross-linking.
Chain of UniProt P57716 (P57716 28-708 I241C): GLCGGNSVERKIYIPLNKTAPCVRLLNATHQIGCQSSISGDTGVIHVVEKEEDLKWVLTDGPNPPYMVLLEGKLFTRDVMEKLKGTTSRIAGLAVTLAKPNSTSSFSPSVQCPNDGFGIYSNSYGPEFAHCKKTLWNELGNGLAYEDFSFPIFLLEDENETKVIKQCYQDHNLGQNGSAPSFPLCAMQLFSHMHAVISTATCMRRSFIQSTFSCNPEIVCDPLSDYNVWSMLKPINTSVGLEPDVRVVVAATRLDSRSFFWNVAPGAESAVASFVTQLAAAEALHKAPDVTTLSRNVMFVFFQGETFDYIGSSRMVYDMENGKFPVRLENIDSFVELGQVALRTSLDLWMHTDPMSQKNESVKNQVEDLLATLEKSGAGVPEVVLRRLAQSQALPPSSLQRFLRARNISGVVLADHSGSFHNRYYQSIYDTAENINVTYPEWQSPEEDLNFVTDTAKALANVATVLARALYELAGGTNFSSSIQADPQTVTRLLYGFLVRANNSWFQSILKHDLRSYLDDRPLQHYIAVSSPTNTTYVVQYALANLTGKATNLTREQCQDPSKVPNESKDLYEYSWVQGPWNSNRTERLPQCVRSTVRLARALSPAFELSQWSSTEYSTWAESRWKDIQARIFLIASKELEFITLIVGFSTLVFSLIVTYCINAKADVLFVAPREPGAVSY

Substance APPC99‐3xFLAG‐K28C (domain or fragment) came in with a percent of the substrate cross-linked to NCT (disulfide bond) of 15.4%.
